Reference: PMC7275037, “DNA origami-based single-molecule force spectroscopy elucidates RNA Polymerase III pre-initiation complex stability”
Values joined by “and” are separate entries in the source; they are usually repeats but may differ in a detail not shown here. Equal values may be shown once.

Columns and labels:
[1] = molecular target: TBP;TFIIA (single chain);TFIIB (Homo sapiens;Homo sapiens;Homo sapiens?) (UniProt P20226+P52655+P52657+Q00403); assay: smFRET; conditions: Binding buffer and temperature not in the material (origami folding buffer: 10 mM Tris pH 7.6, 1 mM EDTA, 20 mM MgCl2, 5 mM NaCl); TFIIB 0.2 uM, TFIIA 2 uM …
Chain of TBP;TFIIA (single chain);TFIIB (Homo sapiens;Homo sapiens;Homo sapiens?) (P20226 whole entry, chain 1 of 4): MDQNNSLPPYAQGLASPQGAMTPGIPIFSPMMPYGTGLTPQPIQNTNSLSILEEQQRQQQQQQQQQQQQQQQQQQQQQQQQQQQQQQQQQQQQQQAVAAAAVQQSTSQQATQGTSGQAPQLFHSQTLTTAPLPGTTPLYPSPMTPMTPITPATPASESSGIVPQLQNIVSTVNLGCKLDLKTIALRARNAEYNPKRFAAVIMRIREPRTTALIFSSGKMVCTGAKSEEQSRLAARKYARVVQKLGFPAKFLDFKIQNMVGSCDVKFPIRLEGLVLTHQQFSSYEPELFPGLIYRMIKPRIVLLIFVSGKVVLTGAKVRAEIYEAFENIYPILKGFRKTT
Chain of TBP;TFIIA (single chain);TFIIB (Homo sapiens;Homo sapiens;Homo sapiens?) (P52655 whole entry, chain 2 of 4): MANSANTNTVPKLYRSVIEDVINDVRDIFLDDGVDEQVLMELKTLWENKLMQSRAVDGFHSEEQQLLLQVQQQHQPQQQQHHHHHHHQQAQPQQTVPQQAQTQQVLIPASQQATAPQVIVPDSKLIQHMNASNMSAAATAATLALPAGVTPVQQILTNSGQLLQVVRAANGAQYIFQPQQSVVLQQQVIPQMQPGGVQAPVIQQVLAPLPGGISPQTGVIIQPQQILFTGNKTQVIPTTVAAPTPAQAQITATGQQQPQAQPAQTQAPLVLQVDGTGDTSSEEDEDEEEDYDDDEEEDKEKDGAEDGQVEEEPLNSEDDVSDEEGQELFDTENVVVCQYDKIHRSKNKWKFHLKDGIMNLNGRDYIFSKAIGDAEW
Chain of TBP;TFIIA (single chain);TFIIB (Homo sapiens;Homo sapiens;Homo sapiens?) (P52657 whole entry, chain 3 of 4): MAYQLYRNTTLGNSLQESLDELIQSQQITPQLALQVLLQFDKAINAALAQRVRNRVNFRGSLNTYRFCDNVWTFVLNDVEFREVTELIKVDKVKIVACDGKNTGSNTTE
Chain of TBP;TFIIA (single chain);TFIIB (Homo sapiens;Homo sapiens;Homo sapiens?) (Q00403 whole entry, chain 4 of 4): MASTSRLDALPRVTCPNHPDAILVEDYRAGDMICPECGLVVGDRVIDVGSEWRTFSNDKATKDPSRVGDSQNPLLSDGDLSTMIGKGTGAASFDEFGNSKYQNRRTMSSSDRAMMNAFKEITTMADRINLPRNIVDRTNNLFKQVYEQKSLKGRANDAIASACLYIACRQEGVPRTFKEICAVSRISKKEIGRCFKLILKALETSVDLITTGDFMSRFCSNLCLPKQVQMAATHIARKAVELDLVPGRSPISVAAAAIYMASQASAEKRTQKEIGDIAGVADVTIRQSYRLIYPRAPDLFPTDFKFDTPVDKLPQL

[2] = molecular target: TBP;TFIIA (single chain) (Homo sapiens;Homo sapiens) (UniProt P20226+P52655+P52657); assay: smFRET; conditions: Binding buffer and temperature not in the material (origami folding buffer: 10 mM Tris pH 7.6, 1 mM EDTA, 20 mM MgCl2, 5 mM NaCl); TFIIB 0.2 uM, TFIIA 2 uM …
Chain of TBP;TFIIA (single chain) (Homo sapiens;Homo sapiens) (P20226 whole entry, chain 1 of 3): as the sequence (P20226 whole entry, chain 1 of 4) above
Chain of TBP;TFIIA (single chain) (Homo sapiens;Homo sapiens) (P52655 whole entry, chain 2 of 3): as the sequence (P52655 whole entry, chain 2 of 4) above
Chain of TBP;TFIIA (single chain) (Homo sapiens;Homo sapiens) (P52657 whole entry, chain 3 of 3): as the sequence (P52657 whole entry, chain 3 of 4) above

[3] = molecular target: TBP (Homo sapiens, UniProt P20226 169-339); assay: smFRET; TIRF dwell times; 0 pN; 20 nM TBP; E=0.39; Binding buffer and temperature not in the material (origami folding buffer: 10 mM Tris pH 7.6, 1 mM EDTA, 20 mM MgCl2, 5 mM NaCl); TFIIB 0.2 uM, TFIIA 2 uM, other proteins 20 nM; conditions: protein: recombinant; tags: N-terminal His; label: ATTO 532 and ATTO 647N on S17 strand (positions by colour only); ds region (U6_comp) within ssDNA spring
Chain of TBP (P20226 169-339): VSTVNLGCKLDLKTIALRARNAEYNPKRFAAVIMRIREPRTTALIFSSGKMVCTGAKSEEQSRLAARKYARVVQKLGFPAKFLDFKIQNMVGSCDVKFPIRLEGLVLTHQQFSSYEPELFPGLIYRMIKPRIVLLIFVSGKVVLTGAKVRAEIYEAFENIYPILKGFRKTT

Molecule	binding signal (% high FRET (bent)) [1]	binding signal (% high FRET (bent)) [2]	binding result [3]
AAGCTTTAGGGCGCCTATAAAAGGGGGTTCGGGCG (double strand) [AdMLP promoter in DNA origami force clamp]	72 and 53	26	–
U6 snRNA promoter in DNA origami force clamp (dsDNA) DNA 1: CGGACCAAGATGATTTGATTGAAGGGCTTAAAATAGGTGTTAGAGTAACCCTTGA DNA 2: TCAAGGGTTACTCTAACACCTATTTTAAGCCCTTCAATCAAATCATCTTGGTCCG	–	–	binds
